The values below come from patent publication US20240376207A1 (JIANGSU HENGRUI PHARMACEUTICALS, published 2024).

Broadly, the EC50 is the midpoint of the concentration-response curve. Usually IC50 stands for the concentration needed to halve the response being measured. One may read the Kd as the equilibrium constant for the complex coming apart. In general, koff refers to the first-order rate constant of dissociation. The kon is a measure of how fast the partners come together.

The target of test [1] is T1, human TIGIT expressed on cells (human, UniProt Q495A1 22-244).
T1 construct: whole, on cells; also called cells overexpressing human TIGIT
T1 sequence (looked up): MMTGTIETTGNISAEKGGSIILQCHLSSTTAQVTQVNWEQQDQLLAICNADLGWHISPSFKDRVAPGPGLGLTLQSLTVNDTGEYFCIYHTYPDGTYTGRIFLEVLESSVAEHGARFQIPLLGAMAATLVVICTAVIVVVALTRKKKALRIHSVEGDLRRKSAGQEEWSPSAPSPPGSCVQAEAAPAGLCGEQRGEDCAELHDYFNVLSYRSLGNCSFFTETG
Put plainly: FACS, cells overexpressing target. How it is done:
(§1) The expression plasmid carrying human or cynomolgus monkey PVRIG gene sequence was transfected into HEK293 cells, and the over-expressing stable transfection monoclonal cell strain was obtained by antibiotic screening and infinite dilution. Overexpressing cells were seeded into a 96-well plate at 2×10⁵ cells/per well. The cells were centrifuged at 300 g for 5 min, the supernatant was then removed, 100 μL of the test antibody was added, and the mixture was incubated at 4° C. for 1 h. The mixture was centrifuged, the supernatant was removed, the plate was washed 3 times with 200 μL of wash buffer (PBS+2% FBS), and then 100 μL of an anti-human IgG secondary antibody (Invitrogen, A-11013) labeled with Alexa Fluor 488 diluted at 1:500 was added. The mixture was incubated at 4° C. for 1 h. The plate was centrifuged, and the supernatant was removed. The plate was washed 3 times with 200 μL of wash buffer (PBS+2% FBS). The cells were resuspended in 100 μL of PBS and tested on a flow cytometer (BD FACS Calibur or BD FACS Canto_II).
(§2) The experiments were carried out according to the methods of Example 4, Example 5 and Example 6 (corresponding receptors and ligands were replaced with human TIGIT and human PVR), and the results are shown in Table 27.

The target in test [2] is T2, human TIGIT recombinant protein (human, UniProt Q495A1 22-141, limits assumed).
T2 construct: construct not described; also called human TIGT recombinant protein
T2 sequence (looked up): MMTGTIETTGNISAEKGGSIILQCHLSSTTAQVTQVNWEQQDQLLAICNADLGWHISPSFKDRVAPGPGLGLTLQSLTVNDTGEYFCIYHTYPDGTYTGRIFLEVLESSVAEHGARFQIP
Put plainly: competition ELISA; human TIGIT, competitor human PVR. As to the method:
(§3) The h-PVRIG-mIgG2a Fc protein (at a concentration of 1 μg/mL) was coated on the 96-well microplate at 100 μL per well, and incubated overnight at 4° C. The plate was washed three times with wash buffer at 250 μL per well. For each wash, the plate was shaken for 10 s to ensure adequate cleaning. A blocking solution was added at 300 μL/well, and the plate was incubated at room temperature for 1 h. The plate was washed three times with wash buffer at 250 μL per well. For each wash, the plate was shaken for 10 s to ensure adequate cleaning. 50 μL of diluted test anti-PVRIG antibody and 50 μL of his-tagged ligand PVRL2 were added to each well, and the plate was incubated at 37° C. for 1 h. The plate was washed three times with wash buffer at 250 μL per well. The HRP-labeled anti-his-tagged secondary antibody (Genscrpit) diluted at 1:2000 was added at 100 μL per well. The plate was incubated at 37° C. for 1 h. The plate was washed three times with wash buffer at 250 μL per well. TMB was added at 100 μL/well, and the plate was incubated in the dark for 15 min. 0.16 M sulfuric acid was added at 50 μL/well. OD values at 450 nm were measured using a Thermo MμtLtiSkanFc microplate reader, and the IC₅₀ values of the anti-PVRIG antibodies blocking the binding of PVRIG to PVRL2 were calculated.
as §2
(In an ELISA, binding on a coated surface is turned into a signal by an enzyme label.)

Test [3] concerns the target T2, human TIGIT recombinant protein. Put plainly: ELISA, coated antigen. As to the method: (§4) A human, cynomolgus monkey, or mouse PVRIG protein (at a concentration of 1 μg/mL) was coated on a 96-well microplate at 100 μL per well, and incubated overnight at 4° C. The plate was washed three times with wash buffer at 250 μL per well. For each wash, the plate was shaken for 10 s to ensure adequate cleaning. A blocking solution (PBS+0.05% Tween20+1% BSA) was added at 300 μL/well, and the plate was incubated at room temperature for 1 h. The plate was washed three times with wash buffer at 250 μL per well. For each wash, the plate was shaken for 10 s to ensure adequate cleaning. Dilutions of the test anti-PVRIG antibodies were added at 100 μL/well. The plate was incubated at 37° C. for 1 h. The plate was washed three times with wash buffer at 250 μL per well. The […] anti-human IgG secondary antibody (Sigma, A8667) was added at 100 μL per well. The plate was incubated at 37° C. for 1 h. The plate was washed three times with wash buffer at 250 μL per well. TMB was added at 100 μL/well, and the plate was incubated in the dark for 15 min. 0.16 M sulfuric acid was added at 50 μL/well. The OD values at 450 nm were read by using a Thermo MultiSkanFc microplate reader, and the EC₅₀ values of the binding of the anti-PVRIG antibodies to PVRIG were calculated.
as §2

Test [4] addresses T3, cynomolgus monkey TIGIT expressed on cells (cynomolgus monkey, UniProt A0A7N9I9V4 89-312).
T3 construct: whole, on cells; also called cells overexpressing cynomolgus monkey TIGIT
Put plainly: FACS, cells overexpressing target. How it is done: as §1
(§5) Similarly to Examples 4, 5 and 6, the binding of humanized anti-PVRIG/TIGIT bispecific antibodies to human and cynomolgus monkey TIGIT and blocking of binding of human TIGIT to ligand were detected, where PVRIG protein was replaced with TIGIT and PVRL2 was replaced with PVR.
Background: Flow cytometry measures light scatter and fluorescence of single cells or particles in a stream.

The target of test [5] is T1, human TIGIT expressed on cells. Put plainly: FACS, cells overexpressing target. How it is done: as §1, §5
This is another data set of the same source.

For test [6], the target named is T2, human TIGIT recombinant protein. Put plainly: competition ELISA; human TIGIT, competitor human PVR. As to the method: as §3, §5
This is another data set of the same source.

The target is the same in test [7]. Put plainly: ELISA, coated antigen. How it is done:
as §4, §5
The source holds these as a separate data set.

In test [8] the target is cynomolgus monkey TIGIT recombinant protein (cynomolgus monkey, UniProt A0A7N9I9V4 89-209). Put plainly: ELISA, coated antigen. How it is done: as §4, §5
The target in test [9] is T4, human TIGIT antigen (AcroBiosystem, TIT-H52H3) (human, UniProt Q495A1 22-141).
T4 sequence (looked up): T2 sequence (looked up)
Put plainly: SPR (Biacore X100), antibody captured on Protein A chip, 1:1 fit. The source says: The affinity of the humanized bispecific antibodies for human PVRIG, cynomolgus monkey PVRIG and human TIGIT was detected using Biacore. Humanized bispecific antibodies were each captured on a Protein A biosensor chip (GE lifesciences, 29127557) of a Biacore instrument (Biacore X100, GE), and then human PVRIG antigen (AcroBiosystem, PVG-H52H4), cynomolgus monkey PVRIG antigen (SEQ ID NO: 1), or human TIGIT antigen (AcroBiosystem, TIT-H52H3) at a series of concentration gradients each flowed over the chip surface. The reaction signals were detected in real time using a Biacore instrument (Biacore X100, GE) to obtain association and dissociation curves. The data obtained from the experiment were fitted using the (1:1) Binding model with the BiacoreX100 evaluation software 2.0 GE to obtain affinity values (see Table 31).
For orientation: SPR reads the build-up and loss of mass on a sensor chip optically.

The target in test [10] is T5, cynomolgus monkey PVRIG expressed on cells (cynomolgus monkey, UniProt A0A2K5WVV8 1-322).
T5 construct: whole, on cells; also called Monkey PVRIG FACS; cells overexpressing cynomolgus monkey PVRIG
T5 sequence: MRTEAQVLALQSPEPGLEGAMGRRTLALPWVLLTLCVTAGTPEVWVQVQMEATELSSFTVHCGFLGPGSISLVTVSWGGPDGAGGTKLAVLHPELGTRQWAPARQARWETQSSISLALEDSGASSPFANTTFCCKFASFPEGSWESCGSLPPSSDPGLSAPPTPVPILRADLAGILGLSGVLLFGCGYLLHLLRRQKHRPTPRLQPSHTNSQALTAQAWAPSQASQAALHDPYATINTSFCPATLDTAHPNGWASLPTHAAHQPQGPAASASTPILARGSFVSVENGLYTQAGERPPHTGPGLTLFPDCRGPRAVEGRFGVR
Put plainly: FACS, cells overexpressing target. How it is done: as §1
(§6) Binding of the humanized anti-PVRIG/TIGIT bispecific antibodies to human and cynomolgus monkey PVRIG and their blocking of the ligand of human PVRIG were detected according to the methods of Examples 4, 5 and 6.

Test [11] deals with T6, his-tagged cynomolgus monkey PVRIG (cyno-PVRIG-his) recombinant protein (cynomolgus monkey).
T6 construct: expressed in HEK293, purified by Ni-NTA; also called Monkey PVRIG-his; cynomolgus monkey PVRIG recombinant protein
T6 chain: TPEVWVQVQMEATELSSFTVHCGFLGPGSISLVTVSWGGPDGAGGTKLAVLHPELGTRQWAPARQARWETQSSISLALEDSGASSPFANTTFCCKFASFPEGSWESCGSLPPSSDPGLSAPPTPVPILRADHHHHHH
Put plainly: ELISA, coated antigen. How it is done:
as §4, §6

Read-outs that look alike come from different tables or passages of the source.

B1: anti-PVRIG/TIGIT bispecific antibody 1708-151-3 (bispecific antibody, human IgG4 S228P, kappa)
heavy: not shown
light: HVQLVESGGGSVQAGGSLRLSCVASASGFTYRPYCMAWFRQAPGKEREAVAGIDIFGGTTYADSVKGRFTASRDNAGFSLFLQMNDLKPEDTAMYYCAAGDSPDGRCPPLGQGLNYWGQGTQVTVSSGGGGSGGGGSDIQMTQSPSSLSASVGDRVTITCRASENIYSYLAWYQQKPGKSPKLLIYNARTLAEGVPSRFSGSGSGTDFTLTISSLQPEDFATYYCQYHSGSPLPFGGGTKVEIKRTVAAPSVFIFPPSDEQLKSGTASVVCLLNNFYPREAKVQWKVDNALQSGNSQESVTEQDSKDSTYSLSSTLTLSKADYEKHKVYACEVTHQGLSSPVTKSFNRGEC
B1: the concentration for a half-maximal effect (EC50) is 1.92 nM in test [1] and 0.069 nM in test [3]. Further, the IC50 in test [2] turned out to be 0.62 nM.

B2: anti-PVRIG/TIGIT bispecific antibody 1708-151-4 (bispecific antibody, human IgG4 S228P, kappa)
heavy: not shown
light: DIQMTQSPSSLSASVGDRVTITCRASENIYSYLAWYQQKPGKSPKLLIYNARTLAEGVPSRFSGSGSGTDFTLTISSLQPEDFATYYCQYHSGSPLPFGGGTKVEIKRTVAAPSVFIFPPSDEQLKSGTASVVCLLNNFYPREAKVQWKVDNALQSGNSQESVTEQDSKDSTYSLSSTLTLSKADYEKHKVYACEVTHQGLSSPVTKSFNRGECGGGGSGGGGSHVQLVESGGGSVQAGGSLRLSCVASASGFTYRPYCMAWFRQAPGKEREAVAGIDIFGGTTYADSVKGRFTASRDNAGFSLFLQMNDLKPEDTAMYYCAAGDSPDGRCPPLGQGLNYWGQGTQVTVSS
As for B2, the concentration giving a half-maximal response (EC50) is 1 nM in test [1] and 0.054 nM in [3]. Moreover, the half-maximal inhibitory concentration (IC50) in test [2] worked out at 0.69 nM.

B3: humanized anti-PVRIG/TIGIT bispecific antibody 1708-151H8 (bispecific antibody, human IgG4 S228P, kappa)
heavy: not shown
light: DIQMTQSPSSLSASVGDRVTITCRASENIYSYLAWYQQKPGKSPKLLIYNARTLAEGVPSRFSGSGSGTDFTLTISSLQPEDFATYYCQYHSGSPLPFGGGTKVEIKRTVAAPSVFIFPPSDEQLKSGTASVVCLLNNFYPREAKVQWKVDNALQSGNSQESVTEQDSKDSTYSLSSTLTLSKADYEKHKVYACEVTHQGLSSPVTKSFNRGEC
Consider B3, for which the concentration giving a half-maximal response (EC50) in test [4] was determined as 0.011 nM; in [5] it was 0.006 nM; in test [7] it was 0.184 nM; in test [8], 0.135 nM. The 50% inhibitory concentration (IC50) in test [6] turned out to be 1.09 nM.

B4: humanized anti-PVRIG/TIGIT bispecific antibody 1708-39H2 (bispecific antibody, human IgG4 S228P, kappa)
heavy: not shown
light: B3 light
Take B4: the EC50 in test [4] came to 0.005 nM; in [5], 0.005 nM; in [7], 0.135 nM; in [8], 0.105 nM. Further, binding in [9] was put at a Kd of 0.0808 nM. In test [9], this molecule registered a dissociation rate constant (koff) of 0.000113 s⁻¹. For the same molecule, the kon in [9] came out at 1.39e+06 M⁻¹ s⁻¹. The half-inhibitory concentration (IC50) in test [6] is 0.812 nM.

B5: anti-TIGIT antibody 1708 (antibody, human IgG4 S228P, kappa, V domains shown)
VH: EVQLVQSGAEVKKPGASVKVSCKASGYTFTNYWMHWVRQAPGQGLEWMGRIDPDSTGSKYNEKFKTRVTMTRDTSTSTVYMELSSLRSEDTAVYYCAREGAYGYYFDYWGQGTLVTVSS
VL: DIQMTQSPSSLSASVGDRVTITCRASENIYSYLAWYQQKPGKSPKLLIYNARTLAEGVPSRFSGSGSGTDFTLTISSLQPEDFATYYCQYHSGSPLPFGGGTKVEIKR
notes: human IgG4 subtype with S228P; kappa light chain
In the case of B5, the EC50 in test [4] was 0.003 nM; in test [5] it was 0.0027 nM; in [1] it was 0.74 nM; in test [7], 0.133 nM; in test [8], 0.104 nM; in test [3] it was 0.055 nM. In addition, the binding result in test [10] and in test [11] was “no binding” in each case. The IC50 in test [6] turned out to be 0.779 nM; in [2], 0.87 nM.
